# Results taken from patent US20210024610A1 (Hoffmann-La Roche, published 2021).
# Read-outs that look alike come from different tables or passages of the source.
# Assays:
# Assay in all cases: cell-based or functional assay
# [1] = biological target: T1, human 4-1BB expressed on cells (Jurkat-hu4-1BB-NFκB-luc2 reporter cells; human T cells in PBMC) (human, UniProt Q07011 24-255)
# [2] = biological target: T1, human 4-1BB expressed on cells …; remark: listed apart in the source
# [3] = biological target: T1, human 4-1BB expressed on cells …; remark: listed apart in the source
# [4] = biological target: T1, human 4-1BB expressed on cells …; parameters: unit not given beside the values
# T1 sequence (Q07011 24-255): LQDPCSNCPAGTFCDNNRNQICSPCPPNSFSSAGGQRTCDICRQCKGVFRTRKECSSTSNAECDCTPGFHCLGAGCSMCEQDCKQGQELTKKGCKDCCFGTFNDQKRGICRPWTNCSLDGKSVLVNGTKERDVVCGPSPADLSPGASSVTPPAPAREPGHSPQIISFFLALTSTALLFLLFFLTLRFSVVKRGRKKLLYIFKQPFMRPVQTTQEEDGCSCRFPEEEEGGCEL
binder,measurement,setting,value
"anti-human 4-1BB clone 20H4.9 human IgG4 (antibody, V domains shown) VH: QVQLQQWGAGLLKPSETLSLTCAVYGGSFSGYYWSWIRQSPEKGLEWIGEINHGGYVTYNPSLESRVTISVDTSKNQFSLKLSSVTAADTAVYYCARDYGPGNYDWYFDLWGRGTLVTVSS VL: EIVLTQSPATLSLSPGERATLSCRASQSVSSYLAWYQQKPGQAPRLLIYDASNRATGIPARFSGSGSGTDFTLTISSLEPEDFAVYYCQQRSNWPPALTFCGGTKVEIKR","EC50 of NFκB-activation-induced Luciferase activity, Jurkat-hu4-1BB-NFκB-luc2 reporter cells, with NCI-N87 cells",[1],0.14 nM
same,"EC50 of NFκB-activation-induced Luciferase activity, Jurkat-hu4-1BB-NFκB-luc2 reporter cells, with KPL-4 cells",[2],0.02 nM
same,"EC50 of NFκB-activation-induced Luciferase activity, Jurkat-hu4-1BB-NFκB-luc2 reporter cells, with NCI-N87 cells",[2],0.02 nM
same,"EC50 of NFκB-activation-induced Luciferase activity, Jurkat-hu4-1BB-NFκB-luc2 reporter cells, with SK-Br3 cells",[2],0.01 nM
same,"EC50 PBMC activation assay, % proliferating CD4, with NCI-N87 cells",[3],0.01 nM
same,"EC50 PBMC activation assay, % proliferating CD8, with NCI-N87 cells",[3],~0.03 nM
same,"AUC above background, PBMC activation assay, % proliferating CD4",[4],10
same,"AUC above background, PBMC activation assay, % proliferating CD8",[4],16
